T1: GFP-Pif1 (Saccharomyces cerevisiae, UniProt P07271, G291P)
T1 construct: N-terminal superfolder GFP fusion of nuclear isoform residues 40-859, pRSF-Duet-1, E. coli Rosetta2(DE3), Ni-NTA purified
T1 sequence (P07271 40-859 G291P): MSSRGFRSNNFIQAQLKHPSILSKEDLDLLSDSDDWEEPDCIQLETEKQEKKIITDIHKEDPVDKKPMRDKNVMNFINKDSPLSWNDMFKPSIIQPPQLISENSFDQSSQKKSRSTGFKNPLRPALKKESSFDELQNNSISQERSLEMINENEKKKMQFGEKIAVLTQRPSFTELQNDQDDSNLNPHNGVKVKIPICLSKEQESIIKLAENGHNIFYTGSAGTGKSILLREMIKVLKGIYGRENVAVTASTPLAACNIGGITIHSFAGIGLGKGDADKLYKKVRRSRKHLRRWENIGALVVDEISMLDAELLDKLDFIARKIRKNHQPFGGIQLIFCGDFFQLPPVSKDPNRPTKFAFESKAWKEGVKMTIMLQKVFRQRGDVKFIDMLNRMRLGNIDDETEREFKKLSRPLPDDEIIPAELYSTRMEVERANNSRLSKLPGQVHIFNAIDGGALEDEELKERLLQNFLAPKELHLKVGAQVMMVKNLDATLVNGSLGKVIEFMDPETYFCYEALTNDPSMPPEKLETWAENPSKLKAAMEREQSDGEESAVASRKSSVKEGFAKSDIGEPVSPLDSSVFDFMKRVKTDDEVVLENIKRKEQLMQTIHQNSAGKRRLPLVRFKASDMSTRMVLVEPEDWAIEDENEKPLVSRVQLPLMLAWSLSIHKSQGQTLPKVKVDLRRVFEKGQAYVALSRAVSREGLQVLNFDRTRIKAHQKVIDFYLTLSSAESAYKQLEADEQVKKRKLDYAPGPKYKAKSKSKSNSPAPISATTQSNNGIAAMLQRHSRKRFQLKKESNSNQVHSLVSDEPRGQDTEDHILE

T2: GFP-Pif1 K264A (Saccharomyces cerevisiae, UniProt P07271 40-859, K264A)
T2 sequence: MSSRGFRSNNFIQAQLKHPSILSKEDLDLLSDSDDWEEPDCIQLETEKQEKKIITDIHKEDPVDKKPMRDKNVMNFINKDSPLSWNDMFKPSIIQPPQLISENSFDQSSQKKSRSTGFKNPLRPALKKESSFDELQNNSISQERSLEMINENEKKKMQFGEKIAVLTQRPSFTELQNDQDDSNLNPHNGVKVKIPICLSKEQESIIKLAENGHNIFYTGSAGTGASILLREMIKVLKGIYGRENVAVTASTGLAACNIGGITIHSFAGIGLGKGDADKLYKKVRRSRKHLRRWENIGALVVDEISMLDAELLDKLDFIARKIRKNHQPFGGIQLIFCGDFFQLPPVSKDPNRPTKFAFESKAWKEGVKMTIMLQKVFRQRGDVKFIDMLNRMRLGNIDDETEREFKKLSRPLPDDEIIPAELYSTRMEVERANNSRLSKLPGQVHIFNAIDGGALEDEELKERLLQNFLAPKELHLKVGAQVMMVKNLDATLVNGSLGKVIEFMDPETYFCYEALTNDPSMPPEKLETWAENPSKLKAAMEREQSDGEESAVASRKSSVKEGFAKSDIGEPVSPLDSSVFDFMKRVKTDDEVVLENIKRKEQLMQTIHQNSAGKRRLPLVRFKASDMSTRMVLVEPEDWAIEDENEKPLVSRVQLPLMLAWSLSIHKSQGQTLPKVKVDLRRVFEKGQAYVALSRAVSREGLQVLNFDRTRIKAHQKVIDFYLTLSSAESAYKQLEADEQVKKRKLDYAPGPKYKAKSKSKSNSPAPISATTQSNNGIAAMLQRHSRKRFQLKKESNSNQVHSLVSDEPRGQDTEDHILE

T3: GFP-Pif1 G291P (Saccharomyces cerevisiae, UniProt P07271 40-859, G291P)
T3 sequence: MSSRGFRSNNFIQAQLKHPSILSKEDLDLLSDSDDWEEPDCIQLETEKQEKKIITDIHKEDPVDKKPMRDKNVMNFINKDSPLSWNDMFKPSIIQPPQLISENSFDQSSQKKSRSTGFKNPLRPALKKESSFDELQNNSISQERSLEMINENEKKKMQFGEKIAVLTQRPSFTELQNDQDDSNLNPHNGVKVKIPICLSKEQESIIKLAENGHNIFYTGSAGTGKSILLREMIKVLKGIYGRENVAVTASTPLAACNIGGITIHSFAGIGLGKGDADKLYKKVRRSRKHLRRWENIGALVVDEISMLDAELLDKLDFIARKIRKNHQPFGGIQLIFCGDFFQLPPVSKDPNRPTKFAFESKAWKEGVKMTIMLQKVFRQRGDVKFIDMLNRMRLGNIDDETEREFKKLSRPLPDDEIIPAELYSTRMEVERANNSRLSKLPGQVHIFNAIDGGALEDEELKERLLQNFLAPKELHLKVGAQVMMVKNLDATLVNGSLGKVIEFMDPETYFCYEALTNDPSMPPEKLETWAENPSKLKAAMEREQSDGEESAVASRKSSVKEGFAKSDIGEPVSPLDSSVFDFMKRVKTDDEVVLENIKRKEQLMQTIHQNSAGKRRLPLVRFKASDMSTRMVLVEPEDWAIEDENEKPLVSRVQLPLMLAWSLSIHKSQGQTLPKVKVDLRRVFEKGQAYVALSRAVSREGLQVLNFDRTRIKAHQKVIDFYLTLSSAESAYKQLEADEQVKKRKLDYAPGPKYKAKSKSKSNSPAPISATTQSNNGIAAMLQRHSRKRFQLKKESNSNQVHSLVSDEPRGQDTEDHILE

T4: Pif1 WT (GFP-Pif1) (Saccharomyces cerevisiae, UniProt P07271 40-859)
T4 sequence: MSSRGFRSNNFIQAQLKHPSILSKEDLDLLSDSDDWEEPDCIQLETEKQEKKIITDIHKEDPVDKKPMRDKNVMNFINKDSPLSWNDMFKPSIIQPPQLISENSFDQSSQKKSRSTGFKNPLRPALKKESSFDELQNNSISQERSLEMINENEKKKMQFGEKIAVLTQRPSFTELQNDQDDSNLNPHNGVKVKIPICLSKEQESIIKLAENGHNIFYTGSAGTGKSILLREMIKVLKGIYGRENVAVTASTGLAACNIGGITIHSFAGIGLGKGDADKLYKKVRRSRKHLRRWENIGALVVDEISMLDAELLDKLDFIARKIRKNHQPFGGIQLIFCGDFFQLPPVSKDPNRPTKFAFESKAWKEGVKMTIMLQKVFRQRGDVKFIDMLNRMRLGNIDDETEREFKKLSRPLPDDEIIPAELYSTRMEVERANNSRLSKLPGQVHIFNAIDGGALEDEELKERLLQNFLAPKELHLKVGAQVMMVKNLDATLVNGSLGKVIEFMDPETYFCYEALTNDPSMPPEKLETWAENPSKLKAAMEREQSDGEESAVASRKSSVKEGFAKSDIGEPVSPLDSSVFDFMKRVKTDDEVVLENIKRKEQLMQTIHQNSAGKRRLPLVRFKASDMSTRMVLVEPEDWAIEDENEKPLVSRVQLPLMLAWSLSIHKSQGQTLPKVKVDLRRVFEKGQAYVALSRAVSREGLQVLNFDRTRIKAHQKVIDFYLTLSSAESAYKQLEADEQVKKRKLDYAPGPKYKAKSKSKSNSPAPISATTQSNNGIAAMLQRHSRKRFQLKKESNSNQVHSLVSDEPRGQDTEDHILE


What was measured:
GFP-Pif1 = biological target: T1, GFP-Pif1; test: ATP hydrolysis, [γ-32P]-ATP TLC, Michaelis-Menten fit; type: biochemical; details: M13 ssDNA 1.5 μM nt, 10 nM Pif1, 5 mM MgCl2, 60 mM KCl, pH 7.5, 30 °C, no RPA; labelled compound as tracer
GFP-Pif1 K264A = biological target: T2, GFP-Pif1 K264A; test: EMSA; no ATP, 5 mM Mg2+; 35 mM Tris-HCl pH 7.5, 1 mM DTT, 5 mM MgCl2, 60 mM KCl, 0.1 mg/ml BSA, no ATP, 30 min at 30 C; 5 nM ssDNA; details: protein: recombinant; tags: N-terminal superfolder GFP; Ni-NTA purified; label: 5' Alexa647
GFP-Pif1 G291P = biological target: T3, GFP-Pif1 G291P; test: as above; details: protein: recombinant; tags: N-terminal superfolder GFP; Ni-NTA purified; label: 5' Alexa647
Pif1 WT (GFP-Pif1) = biological target: T4, Pif1 WT (GFP-Pif1); test: as above; details: protein: recombinant; tags: N-terminal superfolder GFP; Ni-NTA purified; label: 5' Alexa647

Km (GFP-Pif1) [µM]	Molecule	Kd (GFP-Pif1 K264A) [nM]	Kd (GFP-Pif1 G291P) [nM]	Kd (Pif1 WT (GFP-Pif1)) [nM]
760 ± 290	Nc1ncnc2c1ncn2[C@@H]1O[C@H](COP(=O)(O)OP(=O)(O)OP(=O)(O)O)[C@@H](O)[C@H]1O [ATP]			
	GCTAGCAGTAGCCAGCATCGAACGTACGATCGGTAACGTA (ssDNA) [40-nt ssDNA]	12.1	61.4 ± 15.8	12.6 ± 3.81

— paper PMC10279920, “Single-molecule visualization of Pif1 helicase translocation on single-stranded DNA” (The Journal of Biological Chemistry, 2023)
